According to patent US20090186415A1, “METHOD FOR PRODUCTION OF CYTOCHROME P450 WITH N-TERMINAL TRUNCATED P450 REDUCTASE” (priority 2006, published 2009):

T1: human CYP1B1 (Homo sapiens, UniProt Q16678)
T1 construct: made in house; host or cells: Saccharomyces cerevisiae JL20 / W303B and derived strains; microsomes
T1 sequence (Q16678 with tags, fused parts or gaps): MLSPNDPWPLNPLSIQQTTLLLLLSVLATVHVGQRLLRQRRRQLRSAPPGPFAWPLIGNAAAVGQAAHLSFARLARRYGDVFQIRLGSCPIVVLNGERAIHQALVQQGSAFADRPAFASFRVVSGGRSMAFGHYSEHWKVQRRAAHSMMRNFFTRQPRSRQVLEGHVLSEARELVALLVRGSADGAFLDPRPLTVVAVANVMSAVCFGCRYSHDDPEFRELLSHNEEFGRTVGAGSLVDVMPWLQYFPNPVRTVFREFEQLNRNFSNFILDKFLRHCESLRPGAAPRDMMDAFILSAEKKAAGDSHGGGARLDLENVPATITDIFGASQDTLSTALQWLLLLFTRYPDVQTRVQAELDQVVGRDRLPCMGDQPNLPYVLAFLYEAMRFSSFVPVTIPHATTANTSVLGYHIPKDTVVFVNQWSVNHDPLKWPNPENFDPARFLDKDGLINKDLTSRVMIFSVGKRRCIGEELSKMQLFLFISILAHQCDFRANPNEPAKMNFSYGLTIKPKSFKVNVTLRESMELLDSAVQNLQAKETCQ

B1: ΔN24hRD-cmyc: human P450 reductase lacking N-terminal 24 amino acids, with C-terminal c-myc epitope tag (SEQ ID NO: 27) (protein)
chain: MTDMILFSLIVGLLTYWFLFRKKKEEVPEFTKIQTLTSSVRESSFVEKMKKTGRNIIVFYGSQTGTAEEFANRLSKDAHRYGMRGMSADPEEYDLADLSSLPEIDNALVVFCMATYGEGDPTDNAQDFYDWLQETDVDLSGVKFAVFGLGNKTYEHFNAMGKYVDKRLEQLGAQRIFELGLGDDDGNLEEDFITWREQFWPAVCEHFGVEATGEESSIRQYELVVHTDIDAAKVYMGEMGRLKSYENQKPPFDAKNPFLAAVTTNRKLNQGTERHLMHLELDISDSKIRYESGDHVAVYPANDSALVNQLGKILGADLDVVMSLNNLDEESNKKHPFPCPTSYRTALTYYLDITNPPRTNVLYELAQYASEPSEQELLRKMASSSGEGKELYLSWVVEARRHILAILQDCPSLRPPIDHLCELLPRLQARYYSIASSSKVHPNSVHICAVVVEYETKAGRINKGVATNWLRAKEPVGENGGRALVPMFVRKSQLRLPFKATTPVIMVGPGTGWHPFIGFIQERAWLRQQGKEVGETLLYYGCRRSDEDYLYREELAQFHRDGALTQLNVAFSREQSHKVYVQHLLKQDREHLWKLIEGGAHIYVCGDARNMARDVQNTFYDIVAELGAMEHAQAVDYIKKLMTKGRYSLDVWSSSEQKLISEEDLNGSRL
modifications: C-terminal c-myc tag; /note = delta-N24hRD-cmyc tag human P450 reductase
B2: ΔN24hRD: human P450 reductase variant lacking the charged N-terminal 24 amino acids (SEQ ID NO: 26) (protein)
chain: MTDMILFSLIVGLLTYWFLFRKKKEEVPEFTKIQTLTSSVRESSFVEKMKKTGRNIIVFYGSQTGTAEEFANRLSKDAHRYGMRGMSADPEEYDLADLSSLPEIDNALVVFCMATYGEGDPTDNAQDFYDWLQETDVDLSGVKFAVFGLGNKTYEHFNAMGKYVDKRLEQLGAQRIFELGLGDDDGNLEEDFITWREQFWPAVCEHFGVEATGEESSIRQYELVVHTDIDAAKVYMGEMGRLKSYENQKPPFDAKNPFLAAVTTNRKLNQGTERHLMHLELDISDSKIRYESGDHVAVYPANDSALVNQLGKILGADLDVVMSLNNLDEESNKKHPFPCPTSYRTALTYYLDITNPPRTNVLYELAQYASEPSEQELLRKMASSSGEGKELYLSWVVEARRHILAILQDCPSLRPPIDHLCELLPRLQARYYSIASSSKVHPNSVHICAVVVEYETKAGRINKGVATNWLRAKEPVGENGGRALVPMFVRKSQLRLPFKATTPVIMVGPGTGWHPFIGFIQERAWLRQQGKEVGETLLYYGCRRSDEDYLYREELAQFHRDGALTQLNVAFSREQSHKVYVQHLLKQDREHLWKLIEGGAHIYVCGDARNMARDVQNTFYDIVAELGAMEHAQAVDYIKKLMTKGRYSLDVWS
modifications: /note = delta-N24hRD human P450 reductase
B3: 675 bp GAL1p: truncated 675 bp yeast GAL1 promoter (SEQ ID No. 2) (nucleic acid)
DNA: CTTGAATTTTCAAAAATTCTTACTTTTTTTTTGGATGGACGCAAAGAAGTTTAATAATCATATTACATGGCATTACCACCATATACATATCCATATACATATCCATATCTAATCTTACTTATATGTTGTGGAAATGTAAAGAGCCCCATTATCTTAGCCTAAAAAAACCTTCTCTTTGGAACTTTCAGTAATACGCTTAACTGCTCATTGCTATATTGAAGTACGGATTAGAAGCCGCCGAGCGGGTGACAGCCCTCCGAAGGAAGACTCTCCTCCGTGCGTCCTCGTCTTCACCGGTCGCGTTCCTGAAACGCAGATGTGCCTCGCGCCGCACTGCTCCGAACAATAAAGATTCTACAATACTAGCTTTTATGGTTATGAAGAGGAAAAATTGGCAGTAACCTGGCCCCACAAACCTTCAAATGAACGAATCAAATTAACAACCATAGGATGATAATGCGATTAGTTTTTTAGCCTTATTTCTGGGGTAATTAATCAGCGAAGCGATGATTTTTGATCTATTAACAGATATATAAATGCAAAAACTGCATAACCACTTTAACTAATACTTTCAACATTTTCGGTTTGTATTACTTCTTATTCAAATGTAATAAAAGTATCAACAAAAAATTGTTAATATACCTCTATACTTTAACGTCAAGGAGAAAAAACCCC
modifications: /note = Positive strand of the 675 bp GAL1 promoter

Key:
[1] = test system: human NADPH P450 reductase; experiment: MTT-based cytochrome P450 reductase assay, hRD variants in yeast microsomes and cytosolic fractions; type: biochemical; settings: for microsome bound reductase activity: microsomes; for microsome bound reductase activity / cytosolic reductase activity: LEU2 locus of W303B; for cytosolic reductase activity: soluble cytosolic fraction
Experimental: Microsomes from the different yeast strains were prepared as described in Example 1.15. About 100 μg of microsomes, as measured by the Bio-Rad Bradford assay, were used and the increase in MTT reductase activity was followed over a time period of 400 seconds.
The different yeast strains were grown up in YPGE medium as described in Example 1.15. The cells were harvested and centrifuged to a pellet. 10% of cell pellets were re-suspended in 1 ml of buffer B (10 mM Tris-Cl pH7.5, 2 M Sorbitol, 0.1 mM EDTA pH8.0, 1 mM Pefabloc, 0.1 mM DTT) and re-suspended cells were treated with lyticase (3-5 units/O.D. of cells; 2200 units/mg; Sigma) for about an hour. The yeast cell wall was enzymatically removed using lyticase, the pellets were centrifuged and washed twice with ice cold PBS, finally re-suspended in 1 ml PBS. About 0.5 ml of glass beads were added to the suspension and the cells were vortexed three times with a 5 min interval on ice after each vortexing. The cells lysates were directly used for the MTT-based reductase assay. Equal amount of cells lysates (100 μg, as measured by the Bio-Rad Bradford assay) were used and the increase in MTT reductase activity was followed, as above, over a time period of 400 seconds.
The enzyme NADPH-cytochrome P450 reductase mediates the transfer of electrons from NADPH to cytochrome P450, other microsomal proteins and cytochrome c. It also catalyzes the reduction of many drugs and other compounds such as potassium ferricyanide, 2,6-dichloroindopheonl, 1,1-diphenyl-2-picrylhydrazyl (DPPH), and mitomycin c. Tetrazolium salts are used extensively in cell proliferation and cytotoxicity assays, enzyme assays, histochemical procedures and bacteriological screening. […] The compound 3-(4,5-dimethylthiazol-2-yl)-2,5-diphenyltetrazolium bromide (MTT) is a monotetrazolium salt. The reduction of MTT is one of the most frequently used methods for measuring cell proliferation and cytotoxiciy. Reduction of MTT by P450 reductase has been assessed as a method for monitoring yeast produced recombinant P450 reductase activity and the protocol was developed on the procedure published by Yim S-K, et al (Yim S-K., Y. C.-H. Ahn T., Hung H—C and Pan J-G. A continuous Spectrophotometric assay for NADPH-cytochrome P450 reductase activity using 3-(4,5 Dimethylthiazol-2-yl)-2,5-diphenyltetrazolium Bromide. Journal of Biology and Molecular Biology 38: 366-369, 2005). The principal advantage of this substance is that the reduction of MTT can be assayed directly in the reaction medium by a continuous spectrophotometirc method. The electrons released from NADPH by P450 reductase are transferred to MTT, and then the amounts of reduced MTT is assessed spectrophotometrically by measuring the increase in A610 values that is due to the formation of blue formazan. The extinction coefficient of MTT is 11.3 mM^−1 cm^−1. This method offers the advantages of short analysis time with the use of a relatively cheap commercial substrate. The classical assay uses recombinant cytochrome c as a substrate.
Disposable cuvettes were used for this experiment. 850 μl of potassium phosphate buffer was added to a cuvette. […] The cuvette was quickly placed into the spectrophotometer together with the blank cuvette and its contents (that contained all components as in the other test cuvette but not the microsomes or cell supernatant) and the increase in the values at 610 nm was measured for a time period of 400 seconds. […]

[2] = biological target: T1, human CYP1B1; experiment: Determination of P450 amounts via CO-difference spectra (CYP1B1 in yeast microsomes); settings: strains JL20 and W303B with only endogenous yeast P450 reductase, average of 3 observations
Experimental: Determination of P450 amounts via CO-difference spectra: Difference spectra of microsomal preparations were measured in a spectrophotometer (Lambda 16, Perkin Elmer) using plastic disposable cuvettes. 850 μl of a solution containing 100 mM potassium phosphate and 20% glycerol (pH7.5) was added to the cuvette, and left for one minute. Then a ‘few grains’ of sodium hydrosulfite was added, mixed gently to prevent any bubble forming in the cuvette and left for another minute. 150 μl of mirosomes were added into the cuvette and the whole suspension was mixed gently. Two cuvettes (one containing sodium hydrosulphite without microsome and the other with microsome) were prepared and a baseline of light absorption of the buffer and microsome mixture was recorded in the dual-beam spectrophotometer from 400 nm to 500 nm. Carbon monoxide was bubbled slowly into one sample cuvette for about one minute, 1 bubble/second. Light absorption was recorded again from 400 nm to 500 nm. The concentration of cytochrome P450 in the cuvette was calculated from the absorption change at 450 nm relative to the absorbance change at 490 nm, using the formula below: […]

Row | Molecule | P450 reductase activity (MTT reduction) ([1]; microsomal and soluble (cytosolic) fractions, hRD variants in W303B) | microsome bound reductase activity [1] | cytosolic reductase activity [1] | Expression of CYP1B1 (amounts of P450 produced) from GAL promoter variants [2] | Expression of CYP1B1 (amounts of P450 produced) from GAL promoter variants ([2]; listed as 675 bp GAL1 promoter)
1 | B1 | much more potent in reductase activity than ΔN24hRD | superior in its reductase activity than the wild type full-length protein | also higher |  | 
2 | B2 |  | minimal | most of the activity of ΔN24hRD exists in the soluble cytosolic part of the cell |  | 
3 | B3 |  |  |  | the best | the best expression
